How the values were obtained:
[1] = biological target: full-length human α7 nicotinic acetylcholine receptor (human) (UniProt P36544); assay: SEC; S200 10/300 column, 20 mM HEPES pH 7.4, 300 mM NaCl, 0.2% DPC or 0.1% LDAO; pentamer fraction isolated
[2] = biological target: the molecule itself; assay: NMR structure (NMR and ESR restraints with Rosetta comparative modelling); α7nAChR TMD + ICD in LDAO micelles, pH 4.7, 25 mM NaCl, 318 K, with ivermectin; fivefold symmetry applied in the calculations

Sequence of full-length human α7 nicotinic acetylcholine receptor (P36544 23-502 limits assumed): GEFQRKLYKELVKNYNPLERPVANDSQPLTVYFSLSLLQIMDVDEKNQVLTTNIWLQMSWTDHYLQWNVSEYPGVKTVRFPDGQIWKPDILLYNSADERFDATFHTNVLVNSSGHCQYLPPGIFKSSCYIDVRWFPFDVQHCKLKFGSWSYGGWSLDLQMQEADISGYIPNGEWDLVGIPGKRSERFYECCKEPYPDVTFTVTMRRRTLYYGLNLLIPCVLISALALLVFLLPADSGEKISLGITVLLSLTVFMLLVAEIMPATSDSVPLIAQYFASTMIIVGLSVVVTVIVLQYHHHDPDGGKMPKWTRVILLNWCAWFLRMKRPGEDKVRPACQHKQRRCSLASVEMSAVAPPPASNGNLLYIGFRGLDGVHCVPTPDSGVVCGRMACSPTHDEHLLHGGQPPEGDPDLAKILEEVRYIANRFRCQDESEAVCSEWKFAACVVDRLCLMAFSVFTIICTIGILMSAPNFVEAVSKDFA

| Molecule | stoichiometry N [1] | stoichiometry N [2] |
| --- | --- | --- |
| full-length human α7 nicotinic acetylcholine receptor (from UniProt P36544 23-502) | 5 |  |
| human α7 nicotinic acetylcholine receptor construct containing the transmembrane and intracellular domains (α7nAChR TMD + ICD) (domain or fragment, α7 nicotinic acetylcholine receptor, human; construct with the transmembrane domain (TMD) and intracellular domain (ICD), without the extracellular domain; also called α7 TMD + ICD; α7 TMD-ICD; source: E. coli Rosetta 2(DE3) pLysS, purified (NiNTA, SEC pentamer fraction), in LDAO micelles) LYYGLNLLIPCVLISALALLVFLLPADSGEKISLGITVLLSLTVFMLLVAEIMPATSDSVPLIAQYFASTMIIVGLSVVVTVIVLQYHHHDPDGGKMPKWTRVILLNWCAWFLRMKRPGEDKVRPACQHKQRRCSLASVEMSAVAPPPASNGNLLYIGFRGLDGVHCVPTPDSGVVCGRMACSPTHDEHLLHGGQPPEGDPDLAKILEEVRYIANRFRCQDESEAVCSEWKFAACVVDRLCLMAFSVFTIICTIGILMSAPNFVE |  | 5 |
